This is an account of results in patent US20230049152A1 (Genentech, published 2023).

The target in assay [1] is T1, human CCR8 (human, UniProt P51685 1-355). As to the kind of experiment: cell-based or functional assay.
Assay [2] concerns the target T1, human CCR8. As to the kind of experiment: cell-based or functional assay. This is another data set of the same source.
A further assay concerns the target T2, hCCR8 D6A (human, UniProt P51685 1-355).
T2 construct: alanine point mutant on transfected HEK 293 cells
As to the kind of experiment: flow cytometry, HEK293 transfected with hCCR8 D6A with C-terminal FLAG. A general note: A flow cytometer gives signals particle by particle.

The target of another assay is T3, L7A.
T3 construct: single alanine mutant of hCCR8; also called hCCR8 L7A
T3 receptor chain: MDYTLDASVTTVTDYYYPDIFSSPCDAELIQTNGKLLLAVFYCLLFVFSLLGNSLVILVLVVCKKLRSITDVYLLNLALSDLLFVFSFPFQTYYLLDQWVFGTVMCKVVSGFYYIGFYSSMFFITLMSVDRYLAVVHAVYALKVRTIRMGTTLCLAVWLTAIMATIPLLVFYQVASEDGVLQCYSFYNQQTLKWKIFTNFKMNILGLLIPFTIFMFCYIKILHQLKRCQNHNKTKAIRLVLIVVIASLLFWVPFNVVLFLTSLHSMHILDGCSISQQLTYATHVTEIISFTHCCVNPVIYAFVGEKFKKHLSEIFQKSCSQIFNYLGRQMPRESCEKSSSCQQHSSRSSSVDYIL
Put plainly: flow cytometry, HEK293 transfected with hCCR8 L7A with C-terminal FLAG; sheet prints [huCCR8]=0.02 ug/ml.

Another assay concerns the target T4, D14A.
T4 construct: single alanine mutant of hCCR8; also called hCCR8 D14A
T4 receptor chain: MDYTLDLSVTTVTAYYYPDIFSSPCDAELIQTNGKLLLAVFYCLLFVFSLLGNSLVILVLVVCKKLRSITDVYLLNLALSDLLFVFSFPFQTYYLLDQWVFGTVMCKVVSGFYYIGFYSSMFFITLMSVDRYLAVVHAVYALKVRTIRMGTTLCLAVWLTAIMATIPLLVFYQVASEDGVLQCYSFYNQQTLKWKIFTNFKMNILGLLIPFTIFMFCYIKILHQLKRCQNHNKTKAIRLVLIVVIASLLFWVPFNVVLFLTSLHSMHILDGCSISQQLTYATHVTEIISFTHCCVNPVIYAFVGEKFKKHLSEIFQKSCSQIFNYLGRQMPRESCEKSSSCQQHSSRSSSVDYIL
Put plainly: flow cytometry, HEK293 transfected with hCCR8 D14A with C-terminal FLAG; sheet prints [huCCR8]=0.02 ug/ml.

Another assay concerns the target T5, T10A.
T5 construct: single alanine mutant of hCCR8; also called hCCR8 T10A
T5 receptor chain: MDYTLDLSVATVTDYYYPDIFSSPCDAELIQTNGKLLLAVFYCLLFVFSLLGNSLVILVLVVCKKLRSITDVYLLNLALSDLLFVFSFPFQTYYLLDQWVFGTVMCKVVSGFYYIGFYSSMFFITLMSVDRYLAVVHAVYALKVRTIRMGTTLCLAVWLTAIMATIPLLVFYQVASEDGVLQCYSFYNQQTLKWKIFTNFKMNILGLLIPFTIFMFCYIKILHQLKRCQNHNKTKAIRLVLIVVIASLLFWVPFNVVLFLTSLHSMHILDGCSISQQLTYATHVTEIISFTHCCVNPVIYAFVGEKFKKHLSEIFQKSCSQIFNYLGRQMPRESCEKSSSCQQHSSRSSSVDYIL
Put plainly: flow cytometry, HEK293 transfected with hCCR8 T10A with C-terminal FLAG; sheet prints [huCCR8]=0.02 ug/ml.

In a further assay the target is T6, V12A.
T6 construct: single alanine mutant of hCCR8; also called hCCR8 V12A
T6 receptor chain: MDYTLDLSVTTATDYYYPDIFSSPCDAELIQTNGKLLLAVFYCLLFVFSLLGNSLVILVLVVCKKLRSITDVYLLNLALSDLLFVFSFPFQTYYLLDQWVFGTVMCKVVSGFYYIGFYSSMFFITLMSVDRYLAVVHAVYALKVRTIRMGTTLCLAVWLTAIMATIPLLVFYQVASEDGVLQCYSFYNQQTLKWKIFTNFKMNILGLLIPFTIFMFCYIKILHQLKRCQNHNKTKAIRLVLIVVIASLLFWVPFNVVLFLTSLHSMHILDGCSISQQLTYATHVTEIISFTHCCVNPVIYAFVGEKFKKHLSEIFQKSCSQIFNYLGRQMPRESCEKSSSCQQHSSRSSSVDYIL
Put plainly: flow cytometry, HEK293 transfected with hCCR8 V12A with C-terminal FLAG; sheet prints [huCCR8]=0.02 ug/ml.

The target in the next assay is T7, Y15A.
T7 construct: single alanine mutant of hCCR8; also called hCCR8 Y15A
T7 receptor chain: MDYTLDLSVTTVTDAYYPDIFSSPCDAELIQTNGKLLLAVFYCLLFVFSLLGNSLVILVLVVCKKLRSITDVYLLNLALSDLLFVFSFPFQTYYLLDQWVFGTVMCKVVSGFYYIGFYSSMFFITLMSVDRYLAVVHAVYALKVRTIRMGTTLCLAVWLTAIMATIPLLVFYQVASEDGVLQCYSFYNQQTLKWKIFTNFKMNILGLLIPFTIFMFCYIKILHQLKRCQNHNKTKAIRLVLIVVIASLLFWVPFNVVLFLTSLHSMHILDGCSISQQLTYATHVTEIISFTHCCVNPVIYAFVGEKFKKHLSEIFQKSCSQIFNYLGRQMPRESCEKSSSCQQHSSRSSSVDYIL
As to the kind of experiment: flow cytometry, HEK293 transfected with hCCR8 Y15A with C-terminal FLAG; sheet prints [huCCR8]=0.02 ug/ml.

Another assay addresses T8, Y16A.
T8 construct: single alanine mutant of hCCR8; also called hCCR8 Y16A
T8 receptor chain: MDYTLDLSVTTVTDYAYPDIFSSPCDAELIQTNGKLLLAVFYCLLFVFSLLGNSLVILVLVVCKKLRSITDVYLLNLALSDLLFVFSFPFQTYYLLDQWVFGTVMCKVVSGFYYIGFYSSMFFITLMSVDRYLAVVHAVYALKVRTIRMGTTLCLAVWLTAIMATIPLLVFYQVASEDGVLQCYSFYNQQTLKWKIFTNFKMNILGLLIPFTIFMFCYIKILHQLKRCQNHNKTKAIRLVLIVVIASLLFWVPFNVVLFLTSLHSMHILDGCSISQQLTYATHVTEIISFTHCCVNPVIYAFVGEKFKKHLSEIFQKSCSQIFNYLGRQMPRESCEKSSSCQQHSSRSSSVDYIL
Put plainly: flow cytometry, HEK293 transfected with hCCR8 Y16A with C-terminal FLAG; sheet prints [huCCR8]=0.02 ug/ml.

B1: hu.Ab4.H12L3 (antibody, human IgG1, kappa)
heavy: not shown
light: DYQMTQSPSSLSASVGDRVTITCQASQSISSYLSWYQQKPGKAPKLLIYKASTLASGVPSRFSGSGSGTDFTLTISSLQPEDFATYYCQQGYTSSNIDNIFGGGTKVEIKRTVAAPSVFIFPPSDEQLKSGTASVVCLLNNFYPREAKVQWKVDNALQSGNSQESVTEQDSKDSTYSLSSTLTLSKADYEKHKVYACEVTHQGLSSPVTKSFNRGEC
notes: fucosylated human IgG1; also called huCCR8-Ab4.H12L3.hIgG1; Ab4 variant
Consider B1, for which the “Ligand Blocking Activity IC50, Ca2+ influx” value with human CCR8 [1] amounted to 57.9 nM. Also, in the assay with human CCR8 [2], the “ADCP EC50, macrophages HR/FF (FIG. 14A)” value was 0.35 nM; the “ADCP EC50, macrophages RR/FF (FIG. 14B)” value was 0.81 nM; the “ADCP EC50, macrophages RR/VF (FIG. 14D)” value was determined as 0.41 nM.

B2: hu.Ab5.H13L1 (antibody, human IgG1, kappa)
heavy: not shown
light: DIQVTQSPSSLSASVGDRVTITCQASENIANALAWYQQKPGKPPKFLIYGASNLASGVPSRFSGSGSGTDFTFTISSLQPEDIATYYCQQAYYGNSFVEGTFGGGTKVEIKRTVAAPSVFIFPPSDEQLKSGTASVVCLLNNFYPREAKVQWKVDNALQSGNSQESVTEQDSKDSTYSLSSTLTLSKADYEKHKVYACEVTHQGLSSPVTKSFNRGEC
notes: fucosylated human IgG1; also called Ab5 variant
As to B2, the binding result is recorded as “no binding (tested: 0.02 ug/ml)” in the assay with hCCR8 D6A; “binds” with L7A; “binds” with D14A; “binds” with T10A; “binds” in the assay with V12A; “binds” with Y15A. Besides, in the assay with Y16A, the binding result is given as “binds”.
